± gives the uncertainty stated by the source.

The nature of this data set: amyloid nucleation score (Sup35N fusion, yeast selection) (log enrichment); library NNK3; higher = more nucleation; inactive = no reads after selection. The gist of the method: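 Three technical output replicates were used for random libraries. Psi-negative yeast expressing peptides of 20 random codons fused to Sup35N were induced with 100 μM copper sulfate for 24 hours and grown 7 days at 30°C on medium lacking adenine and uracil, and input and output plasmid inserts were Illumina-sequenced, excluding sequences with under 100 input reads. The nucleation score is the DiMSum log enrichment of output over input reads, centred on the mode score of non-aggregating sequences.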
Regarding DYIRRWLVYAYDKVFCRLTV, the amyloid nucleation score result is “inactive”.
Turning to DYISPYCS, the amyloid nucleation score entry was “inactive”.
As for DYRTH, the amyloid nucleation score entry was “inactive”.
With DYTMVKLLIGLSGIRTPVVR, the amyloid nucleation score result is “inactive”.
For DYVAGN, the amyloid nucleation score result was “inactive”.
As to EAKMMRDLSVLVGMPYIMTN, the amyloid nucleation score entry is “inactive”.
As to EALLSSLIIFIDQRGVCEFV, the amyloid nucleation score entry was “inactive”.
As for EAVSDLNVGPAVRCGG, the amyloid nucleation score result was “inactive”.
As for ECDHSCGRWNWIN, the entry is “inactive”.
On to ECLMDGSTAFSMMFFYNYML, for which the amyloid nucleation score entry is “inactive”.
The value for ECYMVCFDSCSNIMFVLDLE was 1.92 ± 0.095; that for EDCRSR was “inactive”.
Turning to EDLNPSSVLYRPSIDFM, the amyloid nucleation score result is “inactive”.
The value for EDRSHVAYTFFSALAQVT was “inactive”.
For EEGATVRTPLATRPGRTLK, the amyloid nucleation score entry was “inactive”.
Consider EFATLAEPDVIYYFLVFYCS, for which the amyloid nucleation score result was “inactive”.
Regarding EFHCSYLVIWYG, the amyloid nucleation score entry is “inactive”.
In the case of EFIALSVFLLNFVSCLWSNV, the amyloid nucleation score entry is “inactive”.
Take EFLGFCFPIAGYFLKDEKIG: the amyloid nucleation score result is “inactive”.
For EFPASNLSMLGWN, the amyloid nucleation score result is “inactive”.
Turning to EGARSGKENGSGKPYRPLGV, the amyloid nucleation score came to 0.528 ± 0.22.
The substance EGFFYCCHFFRLYYNVVVLL registered an amyloid nucleation score of 2.02 ± 0.064.
As to EGGCYSPKHG, the amyloid nucleation score worked out at 0.741 ± 0.28.
Regarding EGKIHNSRLGYFQRRLIVS, the amyloid nucleation score entry is “inactive”.
Take EGPNTVNCPTAS: the amyloid nucleation score result is “inactive”.
EGRFLKLFWSGSL displayed an amyloid nucleation score of -0.108 ± 0.51.
Consider EGSEGSDMSRTFFYICYFIL, for which the amyloid nucleation score entry is “inactive”.
In the case of EGSSSLYCSELRFV, the amyloid nucleation score result is “inactive”.
For the substance EHEFYTKDNFLRGIFYNTNL, the amyloid nucleation score entry is “inactive”.
For the substance EILVVVPIAGEMSIVFMRGW, the amyloid nucleation score entry is “inactive”.
Turning to EIMGICTLTVIFCKC, the amyloid nucleation score turned out to be 1.58 ± 0.1.
The value for EISSVAAYGSN was “inactive”; that for EIVTRERIPEWYSLLLMGLP was “inactive”; that for EKFMPHTELLNVWGLRQILM was “inactive”.
Regarding ELAHKIMAM, the amyloid nucleation score result is “inactive”.
On to ELGMQSNGSSNDRLERRRIR, for which the amyloid nucleation score result is “inactive”.
With ELIKCFFYYNDVGV, the amyloid nucleation score entry was “inactive”.
As for ELLKPCNVCYRWYNTHALLV, the figure is 0.724 ± 0.18.
As for ELRTNYRKLLSSQAEVGCMV, the amyloid nucleation score result was “inactive”.
For the substance ELSANTSFTNSHMTMTTKLF, the amyloid nucleation score result was “inactive”.
For ELVQKGHGIEWERHGVLFGE, the amyloid nucleation score result was “inactive”.
EMAEAGTFEGYSLSVSVSAD: the amyloid nucleation score entry was “inactive”.
Consider EMCRN, for which the amyloid nucleation score result is “inactive”.
The value for EMLKVLVHS was “inactive”; that for EMMLWSFNREFMTFYTRSVD was “inactive”; that for ENMIRFLRDSLCGSFYNLPL was “inactive”.
For the substance ENPVSCKAIYYTVSIITSFS, the amyloid nucleation score entry was “inactive”.
As for ENSGWSKRVFSSFFMIAMMY, the amyloid nucleation score entry is “inactive”.
Take EPESTRMGLSTTILPVFRCL: the amyloid nucleation score was -0.158 ± 0.83.
Consider EQSTRKGNR, for which the amyloid nucleation score entry is “inactive”.
Turning to ERARAAWSNGKAGLLWSGPG, the amyloid nucleation score result is “inactive”.
As to ERIIFYCNRVRRMLYGGLVR, the amyloid nucleation score entry was “inactive”.
As for ERQVYMVLGSICRKPTMERS, the amyloid nucleation score was -1.05 ± 1.9.
Turning to ERVKWDKRMHPVDHWHVTVS, the amyloid nucleation score entry is “inactive”.
As for ERVTRSMWTVGKRYRTGK, the entry is “inactive”.
In the case of ESCRWLLVFKMVCWQ, the amyloid nucleation score result is “inactive”.
The value for ESDFRLYSCFDWNVVAMNYR was 1.44 ± 0.074; that for ESIVVRF was “inactive”; that for ESLATNQVDMFSLSVRIFGP was “inactive”.
As to ESLEMVWPRAMR, the amyloid nucleation score result was “inactive”.
The value for ESNGVSGPAQMERDTVPEVP was “inactive”; that for ESSRRYEVCCLMW was “inactive”; that for ESVSNSYVQTKWEYQLC was “inactive”.
As for ETESATQPVTVIGVSELIRL, the entry is “inactive”; as for ETGYKCAKGFYRCTGRGMVW, “inactive”; as for ETKSCWQL, “inactive”.
The value for ETMVIDWCSTVDRVR was “inactive”; that for ETYYFSVGFFY was “inactive”.
For EVGCV, the amyloid nucleation score was 0.76 ± 0.14.
As to EVLLFVFKEGTHLVGLW, the amyloid nucleation score entry is “inactive”.
Turning to EVLYR, the amyloid nucleation score entry is “inactive”.
Consider EVSFDNLRGWH, for which the amyloid nucleation score entry was “inactive”.
As for EVSGYINMR, the amyloid nucleation score entry is “inactive”.
For the substance EVSLFVTHIL, the amyloid nucleation score entry is “inactive”.
As to EVVGVYRERMSSFLLQGVLL, the amyloid nucleation score was -0.042 ± 0.98.
The value for EVYFKMAQPLLHWDYERMQV was “inactive”.
As for EWKVLYFFGDAFRLFNRWSG, the entry is “inactive”.
On to EWVALNSSYLWYCPVM, for which the amyloid nucleation score entry was “inactive”.
With EWVANPSFGYAEWLLV, the amyloid nucleation score result is “inactive”.
Consider EYLLSSMRLSVILSAWYARC, for which the amyloid nucleation score entry is “inactive”.
The value for EYPFFIKSQGR was “inactive”.
As for EYSVRADPGREMNGEISAWV, the entry is “inactive”; as for FACFAVIILHVIMYVRMSSV, “inactive”.
For FACRVGGEHGGV, the amyloid nucleation score entry is “inactive”.
The substance FAGCTVGLTNYKRLWICVN gave an amyloid nucleation score of 0.092 ± 0.72.
Regarding FAGDLRDCWFLSFV, the amyloid nucleation score result was “inactive”.
The value for FAISSILSMDAPGLDQIDRF was “inactive”; that for FARVSVESRGGNVTFACLCI was 1.73 ± 0.12; that for FATVDDMSTGFRYIFLITRA was “inactive”.
Take FAVDFLCHVS: the amyloid nucleation score result was “inactive”.
Substance FCATRTKVGLHGYASCEDCG displayed an amyloid nucleation score of -0.249 ± 0.48.
FCEPDWNEMGMDFVRCGPSL: the amyloid nucleation score entry is “inactive”.
Take FCFQAFF: the amyloid nucleation score result is “inactive”.
The value for FCGGVAFMMVNVERVRTRRE was 1.39 ± 0.15.
With FCKMVFLGTAVRCVVKLQSV, the amyloid nucleation score entry is “inactive”.
Regarding FCLMHRRWMVVCACIYRWLK, the amyloid nucleation score result is “inactive”.
On to FCLPICFD, for which the amyloid nucleation score entry is “inactive”.

Values taken from the supplement of paper PMC12042874.
